In the DeepSol protein solubility set:

test: soluble on expression in E. coli; label from the status in PepcDB or PDB records

| Sequence | soluble on expression in E. coli |
| --- | --- |
| MVDLKRLRQEPEVFHRAIREKGVALDLEALLALDQEVQELKKRLQEVQTERNQVAKRVPKAPPEEKEALIARGRALGEEAKRLEEALREKEAQLEALLLQVPLPPWPGAPVGGEEANREIKRVGSPPEFSFPPLDHVALMEKNGWWEPRISQVSGSRSYALKGDLALYELALLRFAMDFMARRGFLPMTLPSYAREKAFLGTGHFPAYRDQVWAIAETDLYLTGTAEVVLNALHSGEILPYEALPLRYAGYAPAFRSEAGSFGKDVRGLMRVHQFHKVEQYVLTEASLEASDRAFQELLENAEEILRLLELPYRLVEVATGDMGPGKWRQVDVEVYLPSEGRYRETHSCSALLDWQARRANLRYRDPEGRVRYAYTLNNTALATPRILAMLLENHQLQDGRVRVPKALVPYMGKEVLEPCG | soluble |
| MVDLKRLRQEPEVFHRAIREKGVALDLEALLAVDEQLHKQQEVIADKQMSVKEDLDKVEPAVIEAQNAVKSIKKQHLVEVRSMANPPAAVKLALESIALLLGESTTDWKQIRSIIMRENFIPTIVNFSAEEISDAIREKMKKNYMSNPSYNYEIVNRASLAAGPMVKWAIAQLNYADMLKRVEPLRNELQKLEDDAKDNQQKLEALLLQVPLPPWPGAPVGGEEANREIKRVGGPPEFSFPPLDHVALMEKNGWWEPRISQVSGSRSYALKGDLALYELALLRFAMDFMARRGFLPMTLPSYAREKAFLGTGHFPAYRDQVWAIAETDLYLTGTAEVVLNALHSGEILPYEALPLRYAGYAPAFRSEAGSFGKDVRGLMRVHQFHKVEQYVLTEASLEASDRAFQELLENAEEILRLLELPYRLVEVATGDMGPGKWRQVDIEVYLPSEGRYRETHSCSALLDWQARRANLRYRDPEGRVRYAYTLNNTALATPRILAMLLENHQLQDGRVRVPQALIPYMGKEVLEPGAHHHHHH | soluble |
| MVDVVMAPCSPVECRTAVVIDVLRATSTIVTALSNGASGVIPVKTIEEALEKKKEGVLICGERNAQKPKGFNLGNSPLEYRKEKISGKTIVLTTTNGTQVIEKIRSEEIIAASFLNLSAVVEYLKSKEDILLVCAGTNGRFSLEDFLLAGAIVKRLKRNDLGDGAHAAERYFESVENTREEIKKHSSHAKRLISLGFENDIEFCTTEDLFKTVPALVNGVFILKEFP | soluble |
| MVEATAQETDRPRFSFSIAAREGKARTGTIEMKRGVIRTPAFMPVGTAATVKALKPETVRATGADIILGNTYHLMLRPGAERIAKLGGLHSFMGWDRPILTDSGGFQVMSLSSLTKQSEEGVTFKSHLDGSRHMLSPERSIEIQHLLGSDIVMAFDECTPYPATPSRAASSMERSMRWAKRSRDAFDSRKEQAENAALFGIQQGSVFENLRQQSADALAEIGFDGYAVGGLAGGEGQDEMFRVLDFSVPMLPDDKPHYLMGVGKPDDIVGAVERGIDMFDCVLPTRSGRNGQAFTWDGPINIRNARFSEDLKPLDSECHCAVCQKWSRAYIHHLIRAGEILGAMLMTEHNIAFYQQLMQKIRDSISEGRFSQFAQDFRARYFARNS | soluble |
| MVEPGRIGGNQTRLAAVLLDVSTPNTLNADFDLMRSVAGITDARNEEIRAMLQAFIGRMSGVPPSVWGGLAAARFQDVVDRWNAESTRLYHVLHAIADTIRHNEAALREAGQIHARHIAAAGGDL | soluble |
| MVEVESDSVAERDRSSFLAGHDAIRLAKSCVDSPPERWYAALYQVYADLTKLRCWSNVEVVYSDSATFPTGLLGPLFEEDSMVQELHSAQCILGSERACFHVRCCIVGSPPSGRAINALSPQSETRTEERIITSRREPEVVIAVPMHAMLKLSNLDQALRMSSHIEGIVKNRHVADSSASTHSTDRQAGSRKSSVIFGFVDEDTTTAYYRIREGACESNDRREFSTDDIASCLAQERT | not soluble |
| MVFDTHLHTLFSTDSKMNIEEAIDAGEKKNLGIIITEHIDLNYPVKGEFVFDIDKYFKEYNKYRSNKVLLGVEIGMGEEIKEQNKSINDKYEFDYVLGSIHLLNGLDLYEKTIYKSSPKKEVFEMYFKTMLACLRCHEYIDSLAHIDYISRYAAYHDGEIYYNEYSDYIDEVLKFIVDREIVIEINTRRLNKKEVCENLMPIYKRYSELGGRFVTIGSDSHYKDSIGLNFKNALKMAENCNLKPVFFEKRLMKYA | not soluble |
| MVGPARPQIVLFGSSIVQMSFGHGGWGAILSEVYARKADIILRGYYGWNSSRALEVVDQVFPKDAAVQPSLVIVYFGGNDSMAPHSSGLGPHVPLTEYVDNMKKIALHLQSLSDFTRIIFLSSPPVDEAKVRQNQSPYLSEVIRTNDLCKTYSDACVELCQELGLEVVDLFSTFQKADDWKTVCFTDGIHLSAQGSKIVAGEILRVVKEAEWHPSLHWKSMPTEFADDSPYDLVSADGKQTVNSSEWTYFWEEQWD | soluble |
| MVGRELFKPVPSSTKPQSNASILARFRTAKSRHQPDRRGAQISANDRKSFVTRETPRTDSCFVSERLAMDDLVQIARCAGGKSVLRLTGVCLLTLLFAIASPAHSTHRPVDDLADVDLQLILAVDVSPSMSKVEQKVQRDGYVGAFRHADIARALKSGERGRIAVLYLEWAGPRQQTVVMPWTIVESLDDALILADRLAALPLTEGRGTSISGALSAAHALFAKSGLRSPRRVIDVSGDGPNNAGLPLQLVHDALTTGGVTINGLAISLRAADTLDSFGPHFIELYYESCVIGGSNAFVVTVENTADFANAIRKKLVNEIAGLSAKVQPATYRSHSRPVVLEHHHHHH | soluble |
| MVGVRMTKKVLIVEDNELNMKLFHDLLEAQGYETLQTREGLSALSIARENKPDLILMDIQLPEISGLEVTKWLKEDDDLAHIPVVAVTAFAMKGDEERIREGGCEAYISKPISVVHFLETIKRLLERQPA | soluble |
| MVHMSWFRRRRKSFFDLLEDIFREFEEEFRELEEEFEKLASRVQSRGEEFGKGPYIYGVRITIGPDGVPKVEEFGNIRMARGRPQIREEMEPLVDVIERDDEVWIVADIPGANKDKIKVRATEDKVVIKAENGKKYYKEVELPAKVDPKSAKASYRNGVLEIKLKKIKPAEEGTEVKVE | soluble |
| MVICLSTEISLVAATLNEIGNIATFLDKVEKELIYYNFEIIIVDDNSSDGTKEYLAERSLKDKNLHVIENPYRVGMLGSLKMGINSAKGKYCIVMDADLQHPPEAILSIIERLNHGCDIVVGSRYVNGGSAGDRNSYRALLSIGAQYLSYLFLRSARSTTDPMSGFFGFQTSMNHDFSYKNRFKLTDMGAKILLLLLAENQNCNVCDVGYVFRSRERGKSKIVSGMSFLERYMSELLDAMIVERQWKNRGCLEHHHHHH | not soluble |
| MVIDQTDPIYVLFHDEEWGVPVRDDKKLFELLVFSQALAEFSWPSILRRRDDFRKLFEEFDPSAIAQFTEKRLMSLRVNGCLILSEQKLRAIVENAKSVLKVKQEFGSFSNYCWRFVNHKPLRNGYRYGRQVPVKSPKAEYISKDMMQRGFRCVGPTVMYSFLQASGIVNDHLTACFRYQECNVETERETKSHETETKLDLHSPLLV | soluble |
| MVKDLLEERARELGLLFAWAPLDLPQEAEARHRAWLEAGRHGGMAYLEAPERFHPRKRFPWAKSALLLFAPYAYPDPGTPPGGLRVGRVARYAWTRDYHLVLGEALKALEETARGLGLKAKGYVDHGPLPERTLAALSGAGWIGKSGYFLSQAFGVHAFIGVLLTPLEVEAAPLHPSRCGRCARCLSACPTEALLGDGTLDARACVSYLTIEHKGPIPPSLWPGIGDWLFGCDLCGEACPWERFGKVWKALRPEPELAHPDLLDFFRLSGRAFGRKYAGTAFLRAGRARMARNALIVLFNLGLGEALFLEATRDPNPLVRRTALRALHLMGKPLDPFLQDPGLREEALALLGEAPEAVHLLQDGREAPGPEVKEQGA | not soluble |
| MVKITNNVHQFGYEPAEFLSKKLTFTDIVHPEDLDRIVKEMVAFLKNDIVYFEQDYRIFTKGGDIRWVYEKTILKTDDTGLPTLAKGYLLDITER | not soluble |
| MVKIVELQEKESLYYCTKDEDHFFDRKAFGLKGEKVQKIAVAFANADGGEILVGIADDKDEVIPEKRWQGQESTEAYNSVIQALSELVPSVDFRFDFLTRVNESRNYVLRVKINKGLSVHETAKKKIFLRQGAQSLPVTAPIKILELTHAKGIISEEDSLVNSASIDELDSSIELTKFLSELPIRAPDPITFLLKEKLVDSETWAPTVAAVLLFAENPSAELPKQCAIRIVRYDTDGEDIDRDALTEDNIAIEGSLYQQIQDAYSKIELFLSKNKVWKVEGLVETKYPKETIWEILVNTVIHRDYAISDNVLVSIFNNRIEFKSPGRFTGFVTAENILENRCSRNSKIVRILSKYKDSPNKDLGEGMNTAFQRMRSMGLRDPEILEDGNYVKIILRHSSNDDPETLIMKFIESNGEINNRQARDLTGIDRTEKVTYQFSKLRDKGLIQRKDSSTGLKSSWIAVLEHHHHHH | not soluble |
| MVKLENKPTIISTGTIVGPKEGEGPLKDYFDMIMTDDLYGEKTWELAESKMVETASQQAIQKAGKKLSDVNYMLGGDLINQIVPASFAARELAIPFLGIYGACSTMAEGLCIGSMLIDGGFADLVLSGTSSHYCTAERQFRFPLELGNQKPMTAQWTVTGAGSVLLAPNGDGPKVKYVTVGKVIDEGIDDGNNMGPAMAPAAIDTIYSYFEDTNDDPNSFDIIATGDLGTLGKQIAEDFLKEKGVDISKVYTDCGIEMFNLKEQDVHCGGSGCGCSATVFAGYIYDKLRKKEFNKVMLVSTGALLSPTSTLQKQTIPCVAHAVVIVNELEHHHHHH | not soluble |
| MVKQIESKTAFQEALDAAGDKLVVVDFSATWCGPCKMIKPFFHSLSEKYSNVIFLEVDVDDCQDVASECEVKCMPTFQFFKKGQKVGEFSGANKEKLEATINELV | soluble |
| MVKQVFNFNAGPSALPKPALERAQKELLNFNDTQMSVMELSHRSQSYEEVHEQAQNLLRELLQIPNDYQILFLQGGASLQFTMLPMNLLTKGTIGNYVLTGSWSEKALKEAKLLGETHIAASTKANSYQSIPDFSEFQLNENDAYLHITSNNTIYGTQYQNFPEINHAPLIADMSSDILSRPLKVNQFGMIYAGAQKNLGPSGVTVVIVKKDLLNTKVEQVPTMLQYATHIKSDSLYNTPPTFSIYMLRNVLDWIKDLGGAEAIAKQNEEKAKIIYDTIDESNGFYVGHAEKGSRSLMNVTFNLRNEELNQQFLAKAKEQGFVGLNGHRSVGGCRASIYNAVPIDACIALRELMIQFKENA | soluble |
| MVKSAVLGFPRIGKNRELKKATEAYWSGKTSAEELLATAKQLRLEHWKLQKAQGVDIIPSNDFSLYDQIMDHSFSFNVIPPRYRLSGLSSLDTYFAMGRGMQRAATADKAAVDVPAGEMVKWFDSNYHFLRPEVSEETDFKLSSTKALDEFLEAKEAGIITRPVLVGPVTYLFIAKAAKGSSIKPIELLPKLLPVYVELIKKLTEAGAEYIQIDEPILTLDLPQEILASYKEAYETLGKIGKLILTTYFGSLQSNADVLKGLPIAGVHVDVVRAPENLDRALAVLGENQIISVGVVSGRNIWKTDFQKATAIIEKAISAVGSERVQVASSSSILHIPHSLSGEDQINPEIKRWFAFAVEKCAELAILTKAANDGPASVRAELEANAADCKARAESPITNVEAVRERQSKVTPQMHERKSPFETRYAKQQASLKLPLFPTTTIGSFPQTKEIRVTRNRFAKGLISQEEYDAFIRKEISDVVKFQEEVGLDVLVHGEPERNDMVQYFGERMEGFVFTVNGWVQSYGSRCVRPPIIVGDVYRPAPMTVKESQYAQSITSKPMKGMLTAPITILRWSFPRDDVHDSVQAQQIALGLRDEVLDLEKAGIKVIQCDEPALREGLPLRRAEWDEYLKWAIDAFRLATAAVQDDTQIHSHFCYSDFNDIFDAIQRLDADVVSIENSKSDMKLLNVLSRYTSCIGPGLFDIHSPRVPPVSEFKERIDAIVKHVPKDHLWLNPDCGLKTRGWPETTADLKNMIAAAREAREQYA | soluble |
| MVKSIVILIETVTMKIPAVYSDGSFKTFNDSETTAQKLVDSGVVNTFAFGPTLVENGKVAVSENEEVGQDMADNPRTAIVVNEESDRSVHYIVIVSDGRTSESSGLTLYEMAELMKSYGVMTGYNLDVGDSSTMYSNGQVINKPTRKRKQNLRKGGERYRLHRLLKNLLASTFSPPILVLEHHHHHH | soluble |
